Laboratory results taken from patent US20240116985A1 (published 2024).
Starred links: 1 amine or outer side, 2 acyl side, 3 side chain; linkers in the order of their positions; H or OH if unused. Positions of bridges follow the written chain, without caps; N, C: chain ends. Non-standard residues stand in square brackets, D forms with d. Primed or numbered codes have the meaning given here. B5(26) = 2-amino-2-(pent-4-en-1-yl)hept-6-enoic acid (bis-pentenylglycine), stitching residue carrying two staples, C=CCCCC(CCCC=C)(N[*:1])C(=O)[*:2]; PyrS2″ = (S)-3-amino-1-((pent-4-en-1-yloxy)carbonyl)pyrrolidine-3-carboxylic acid (stapling residue), C=CCCCOC(=O)N1CC[C@@](N[*:1])(C(=O)[*:2])C1; (TfePpz)GlnR = (S)-2-amino-5-oxo-5-(4-(2,2,2-trifluoroethyl)piperazin-1-yl)pentanoic acid, O=C(CC[C@H](N[*:1])C(=O)[*:2])N1CCN(CC(F)(F)F)CC1; B5(23) = 2-amino-2-(pent-4-en-1-yl)hept-6-enoic acid (2,2-bis(4-pentenyl)glycine), stitching residue, C=CCCCC(CCCC=C)(N[*:1])C(=O)[*:2]; B5(24) = 2-amino-2-(pent-4-en-1-yl)hept-6-enoic acid, 2,2-bis(4-pentenyl)glycine (stitching residue), C=CCCCC(CCCC=C)(N[*:1])C(=O)[*:2]; B5(4) = 2,2-bis(4-pentenyl)glycine = 2-amino-2-(pent-4-en-1-yl)hept-6-enoic acid (stitching residue), C=CCCCC(CCCC=C)(N[*:1])C(=O)[*:2]; B5(5) = 2,2-bis(4-pentenyl)glycine, 2-amino-2-(pent-4-en-1-yl)hept-6-enoic acid (stitching residue), C=CCCCC(CCCC=C)(N[*:1])C(=O)[*:2]; B5(21) = 2-amino-2-(pent-4-en-1-yl)hept-6-enoic acid, bis(4-pentenyl)glycine (stitching residue), C=CCCCC(CCCC=C)(N[*:1])C(=O)[*:2]; TfeGA = (S)-2-amino-3-((carboxymethyl)(2,2,2-trifluoroethyl)amino)propanoic acid, O=C([C@H](CN(CC(=O)[*:3])CC(F)(F)F)N[*:1])[*:2]; B5(12) = 2-amino-2-(pent-4-en-1-yl)hept-6-enoic acid (two olefin side chains), C=CCCCC(CCCC=C)(N[*:1])C(=O)[*:2]; B5(19) = 2-amino-2-(pent-4-en-1-yl)hept-6-enoic acid (bis(4-pentenyl)glycine), C=CCCCC(CCCC=C)(N[*:1])C(=O)[*:2]; S(OMe) = O-methyl-L-serine, COC[C@H](N[*:1])C(=O)[*:2]; Phe(3-CONH2) = NC(=O)c1cccc(C[C@H](N)C(=O)O)c1; Phe(3-COOH) = N[C@@H](Cc1cccc(C(=O)O)c1)C(=O)O; Phe(2-Br) = N[C@@H](Cc1ccccc1Br)C(=O)O; Phe(2-Cl) = N[C@@H](Cc1ccccc1Cl)C(=O)O; His(τ-Me) = Cn1cnc(C[C@H](N)C(=O)O)c1; Phe(2-F) = N[C@@H](Cc1ccccc1F)C(=O)O; Bta = N[C@@H](Cc1csc2ccccc12)C(=O)O; His(π-Me) = Cn1cncc1C[C@H](N)C(=O)O; Lys(iPr) = CC(C)NCCCC[C@H](N)C(=O)O; αAllylPro = C=CC[C@@]1(C(=O)O)CCCN1; tBuAla = CC(C)(C)C[C@H](N)C(=O)O; 3Thi = N[C@@H](Cc1ccsc1)C(=O)O; Cha = N[C@@H](CC1CCCCC1)C(=O)O; S8 = C=CCCCCCC[C@](C)(N)C(=O)O; PyrS2(4) = not defined here; TfeGA″ = not defined here; hSer = N[C@@H](CCO)C(=O)O; Nle = CCCC[C@H](N)C(=O)O; Aib = CC(C)(N)C(=O)O

B1: I-1916 (peptide)
peptide: Ac-[αAllylPro]D[tBuAla][B5(4)]D[Phe(3-COOH)]HAFL[PyrS2(4)][3Thi][Bta]A-NH2
modifications: staple 1-4, 4-11; not fully specified; printed as Ac-PL3-Asp-Npg-B5-Asp-3COOHF-His-Ala-Phe-Leu-PyrS2-3Thi-BztA-Ala-NH2; reading uncertain
B2: I-1913 (peptide)
peptide: Ac-[αAllylPro]D[tBuAla][B5(12)]D[Phe(3-COOH)][Nle]AFL[PyrS2(4)][3Thi][Bta]F-NH2
modifications: staple 1-4, 4-11; not fully specified; printed as Ac-PL3-Asp-Npg-B5-Asp-3COOHF-nLeu-Ala-Phe-Leu-PyrS2-3Thi-BztA-Phe-NH2; reading uncertain
B3: I-440 (peptide)
peptide: XDAXDEAAFNXHXQ
modifications: not fully specified; N-terminal Ac, C-terminal NH2; non-natural PL3(1), B5(4), S8(11), 1meH(12), BztA(13); staples PL3-B5 and B5-S8 (olefin metathesis)
notes: Stapled peptide composition
B4: I-1917 (peptide)
peptide: Ac-[αAllylPro]D[tBuAla][B5(4)]D[Phe(3-COOH)]KAFL[PyrS2(4)][3Thi][Bta]A-NH2
modifications: staple 1-4, 4-11; not fully specified; printed as Ac-PL3-Asp-Npg-B5-Asp-3COOHF-Lys-Ala-Phe-Leu-PyrS2-3Thi-BztA-Ala-NH2; reading uncertain
B5: I-1919 (peptide)
peptide: Ac-[αAllylPro]D[tBuAla][B5(4)]D[Phe(3-COOH)][Nle]AFL[PyrS2(4)][3Thi][Bta]A-NH2
modifications: staple 1-4, 4-11; not fully specified; printed as Ac-PL3-Asp-Npg-B5-Asp-3COOHF-nLeu-Ala-Phe-Leu-PyrS2-3Thi-BztA-Ala-NH2; reading uncertain
B6: I-1915 (peptide)
peptide: Ac-[αAllylPro]D[tBuAla][B5(4)]D[Phe(3-COOH)][Lys(iPr)]AFL[PyrS2(4)][3Thi][Bta]A-NH2
modifications: staple 1-4, 4-11; not fully specified; printed as Ac-PL3-Asp-Npg-B5-Asp-3COOHF-iPrLys-Ala-Phe-Leu-PyrS2-3Thi-BztA-Ala-NH2; reading uncertain
B7: I-1914 (peptide)
peptide: Ac-[αAllylPro]D[tBuAla][B5(12)]D[Phe(3-COOH)][Aib]AFL[PyrS2(4)][3Thi][Bta]F-NH2
modifications: staple 1-4, 4-11; not fully specified; printed as Ac-PL3-Asp-Npg-B5-Asp-3COOHF-Aib-Ala-Phe-Leu-PyrS2-3Thi-BztA-Phe-NH2; reading uncertain

Assays:
[1] = molecular target: T1, B-cat-Halo (beta-catenin HaloTag construct transfected into HEK293 cells) (UniProt P35222 1-781); assay: cell-based or functional assay
T1 sequence (looked up): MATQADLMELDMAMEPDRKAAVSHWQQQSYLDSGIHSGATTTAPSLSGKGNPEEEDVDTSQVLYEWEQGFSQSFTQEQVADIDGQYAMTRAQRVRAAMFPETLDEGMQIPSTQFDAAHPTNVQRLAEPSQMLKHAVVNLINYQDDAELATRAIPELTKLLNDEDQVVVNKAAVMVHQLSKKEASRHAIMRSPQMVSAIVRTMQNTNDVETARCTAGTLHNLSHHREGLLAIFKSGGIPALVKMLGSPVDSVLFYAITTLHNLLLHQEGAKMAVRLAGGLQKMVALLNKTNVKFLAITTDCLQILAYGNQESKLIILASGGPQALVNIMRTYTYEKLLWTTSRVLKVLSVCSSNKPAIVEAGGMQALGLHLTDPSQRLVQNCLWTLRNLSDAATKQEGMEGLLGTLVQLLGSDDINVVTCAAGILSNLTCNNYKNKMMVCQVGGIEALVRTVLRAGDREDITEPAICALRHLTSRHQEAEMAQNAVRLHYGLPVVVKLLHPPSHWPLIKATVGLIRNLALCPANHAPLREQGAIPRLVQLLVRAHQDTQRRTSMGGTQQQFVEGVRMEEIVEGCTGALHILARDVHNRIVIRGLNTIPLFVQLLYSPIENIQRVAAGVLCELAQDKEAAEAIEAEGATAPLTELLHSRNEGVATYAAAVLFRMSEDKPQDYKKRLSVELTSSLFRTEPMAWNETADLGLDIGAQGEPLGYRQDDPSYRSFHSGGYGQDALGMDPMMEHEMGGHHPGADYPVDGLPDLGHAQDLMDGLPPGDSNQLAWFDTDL

[2] = molecular target: T2, full-length beta-Catenin (Uniprot ID P35222) (Homo sapiens (Human), UniProt P35222 1-781); assay: fluorescence polarization competition; peptide titrated against 10 nM full-length beta-catenin + 10 nM 5FAM-TCF4(10-53) probe
T2 construct: The assay text says 'full-length'; also called bCat; B-Catenin
T2 sequence: T1 sequence (looked up)
Experimental: The plate was incubated protected from light for 60 minutes at 20° C. prior to read. Reads were performed on a CLARIOstar plate reader (BMG Labtech) in duplicate, and data were fitted to a 1:1 binding model with hill slope using an in-house script. All provided concentrations are final concentrations.

B-cat-Halo = molecular target: T3, B-cat-Halo (UniProt P35222 1-781); assay: cell-based or functional assay
T3 sequence (looked up): T1 sequence (looked up)

Row | Binder | IC50 [2] [nM] | NanoBRET Abs IC50 (B-cat-Halo) [µM] | also measured
1 | Ac-[αAllylPro]D[tBuAla][B5(19)]D[TfeGA]AAF[(TfePpz)GlnR][PyrS2″][3Thi][Bta]Q-NH2 (staple 1-4, 4-11) [I-1935] | – | – | NanoBRET Abs IC50 [1]: 7.1 µM
2 | Ac-[αAllylPro]DA[B5(24)]DEAAFN[S8][Phe(2-Cl)][Bta]Q-NH2 (staple 1-4, 4-11, Stapled peptide composition) [I-435] | 70 | – | –
3 | Ac-[αAllylPro]N[Cha][B5(19)]DQ[Lys(iPr)]AFN[PyrS2″][Phe(3-CONH2)][Bta][hSer]-NH2 (staple 1-4, 4-11) [I-1929] | – | – | NanoBRET Abs IC50 [1]: > 20 µM
4 | Ac-[αAllylPro]D[tBuAla][B5(5)]D[TfeGA][Lys(iPr)]AFL[PyrS2″][3Thi][Bta]F-NH2 (staple 1-4, 4-11) [I-1761] | – | > 20 | –
5 | Ac-[αAllylPro]D[tBuAla][B5(5)]D[TfeGA][Lys(iPr)]AFT[PyrS2″][3Thi][Bta]V-NH2 (staple 1-4, 4-11; also: -CH=CH- in each staple reduced to -CH2-CH2-) [I-1770] | – | > 20 | –
6 | Ac-[αAllylPro]D[tBuAla][B5(5)]D[TfeGA″][Lys(iPr)]AFT[PyrS2(4)][3Thi][Bta]F-NH2 (staple 1-4, 4-11; not fully specified; reading uncertain) [I-1762] | – | > 20 | –
7 | B1 | – | – | NanoBRET Abs IC50 [1]: 9.2 µM
8 | B2 | – | – | NanoBRET Abs IC50 [1]: 17.5 µM
9 | Ac-[αAllylPro]DA[B5(23)]DEAAFT[S8]F[Bta]H-NH2 (staple 1-4, 4-11, Stapled peptide composition) [I-420] | 128 | – | –
10 | Ac-[αAllylPro]DA[B5(21)]DEAAFN[S8][His(τ-Me)][Bta]Q-NH2 (staple 1-4, 4-11, Stapled peptide composition) [I-439] | 5000 | – | –
11 | B3 | 5000 | – | –
12 | Ac-[αAllylPro]DA[B5(23)]DEAAFT[S8]F[Bta]Q-NH2 (staple 1-4, 4-11, Stapled peptide composition) [I-423] | 105 | – | –
13 | Ac-[αAllylPro]DA[B5(24)]DEAAF[S(OMe)][S8]F[Bta]Q-NH2 (staple 1-4, 4-11, Stapled peptide composition) [I-433] | 136 | – | –
14 | Ac-[αAllylPro]DA[B5(26)]DEAAFN[S8][His(π-Me)][Bta]Q-NH2 (staple 1-4, 4-11, Stapled peptide composition) [I-438] | 5000 | – | –
15 | B4 | – | – | NanoBRET Abs IC50 [1]: 37.7 µM
16 | Ac-[αAllylPro]D[tBuAla][B5(5)]D[TfeGA]AAFL[PyrS2″][3Thi][Bta]L-NH2 (staple 1-4, 4-11) [I-1748] | – | 20.2 | –
17 | Ac-[αAllylPro]D[tBuAla][B5(5)]D[TfeGA][Lys(iPr)]AFL[PyrS2″][3Thi][Bta]L-NH2 (staple 1-4, 4-11) [I-1759] | – | > 20 | –
18 | B5 | – | – | NanoBRET Abs IC50 [1]: 4.7 µM
19 | Ac-[αAllylPro]D[tBuAla][B5(5)]D[TfeGA][Lys(iPr)]AFT[PyrS2″][3Thi][Bta]V-NH2 (staple 1-4, 4-11) [I-1764] | – | > 20 | –
20 | Ac-[αAllylPro]D[tBuAla][B5(5)]D[TfeGA][Lys(iPr)]AFT[PyrS2″][3Thi][Bta]F-NH2 (staple 1-4, 4-11; also: -CH=CH- in each staple reduced to -CH2-CH2-) [I-1768] | – | > 20 | –
21 | Ac-[αAllylPro]D[tBuAla][B5(5)]D[TfeGA][Lys(iPr)]AFL[PyrS2″][3Thi][Bta]V-NH2 (staple 1-4, 4-11) [I-1763] | – | > 20 | –
22 | B6 | – | – | NanoBRET Abs IC50 [1]: 20.2 µM
23 | Ac-[αAllylPro]DA[B5(24)]DEAAFN[S8][Phe(2-F)][Bta]Q-NH2 (staple 1-4, 4-11, Stapled peptide composition) [I-434] | 67.5 | – | –
24 | Ac-[αAllylPro]D[tBuAla][B5(5)]D[TfeGA][Lys(iPr)]AFT[PyrS2″][3Thi][Bta]L-NH2 (staple 1-4, 4-11) [I-1760] | – | > 20 | –
25 | Ac-[αAllylPro]D[tBuAla][B5(5)]D[TfeGA]AAFL[PyrS2″][3Thi][Bta]F-NH2 (staple 1-4, 4-11) [I-1750] | – | 23.7 | –
26 | Ac-[αAllylPro]DA[B5(24)]DEAAFN[S8][Phe(2-Br)][Bta]Q-NH2 (staple 1-4, 4-11, Stapled peptide composition) [I-436] | 56 | – | –
27 | B7 | – | – | NanoBRET Abs IC50 [1]: 6.4 µM
